Experimental data: patent publication US20250186594A1

Columns and labels:
[1] = target: Native IL-18 wild-type (SEQ ID NO: 1, native sequence) (human) (UniProt Q14116)
[2] = target: IL-18 variant SEQ ID NO: 60 with 30 kDa PEG (E6K, C38Q, K53A, C68-30kPEG) (human) (UniProt Q14116); assay: cell-based or functional assay
[3] = target: IL-18 variant SEQ ID NO: 60 (E6K, C38Q, K53A) (human) (UniProt Q14116); assay: cell-based or functional assay
[4] = target: IL-18 variant SEQ ID NO: 62 with 30 kDa PEG (E6K, C38A, K53A, C127A, C68-30kPEG) (human) (UniProt Q14116); assay: cell-based or functional assay
[5] = target: IL-18 variant SEQ ID NO: 59 with 30 kDa PEG (E6K, C38A, K53A, C68-30kDPEG) (human) (UniProt Q14116); assay: cell-based or functional assay
[6] = target: IL-18 variant SEQ ID NO: 219 (V11I, C38A, K53A, C76A, G108A, C127A) (human) (UniProt Q14116); assay: cell-based or functional assay
[7] = target: Native IL-18 wild-type (SEQ ID NO: 1, native sequence) (human) (UniProt Q14116); assay: cell-based or functional assay
[8] = target: IL-18 variant SEQ ID NO: 30 with 30 kDa PEG (E6K, V11I, C38A, K53A, T63A, C76A, C127A, C68-30kPEG) (human) (UniProt Q14116); assay: cell-based or functional assay
[9] = target: IL-18 variant SEQ ID NO: 224 (V11I, C38A, C76A, Q103K, C127A) (human) (UniProt Q14116); assay: cell-based or functional assay
[10] = target: IL-18 variant SEQ ID NO: 220 (V11I, C38A, K53A, C76A, H109A, C127A) (human) (UniProt Q14116); assay: cell-based or functional assay
[11] = target: IL-18 variant SEQ ID NO: 57 with 30 kDa PEG (E6K, C38S, K53A, C68-30kDPEG) (human) (UniProt Q14116); assay: cell-based or functional assay
[12] = target: IL-18 variant SEQ ID NO: 213 (V11I, S36A, C38A, K53A, C76A, C127A) (human) (UniProt Q14116); assay: cell-based or functional assay
[13] = target: IL-18 variant SEQ ID NO: 59 with 10 kDa PEG (E6K, C38A, K53A, C68-10kPEG) (human) (UniProt Q14116); assay: cell-based or functional assay
[14] = target: IL-18 variant SEQ ID NO: 205 (V11I, C38A, K53A, T63A, C76A, C127A) (human) (UniProt Q14116); assay: cell-based or functional assay
[15] = target: IL-18 variant SEQ ID NO: 206 (V11I, C38A, K53A, S55A, C76A, C127A) (human) (UniProt Q14116); assay: cell-based or functional assay
[16] = target: IL-18 variant SEQ ID NO: 216 (V11I, C38A, D40A, K53A, C76A, C127A) (human) (UniProt Q14116); assay: cell-based or functional assay
[17] = target: IL-18 variant SEQ ID NO: 4 with 30 kDa PEG (E6K, C38A, K53A, C68A, M86C-30kPEG) (human) (UniProt Q14116); assay: cell-based or functional assay
[18] = target: IL-18 variant SEQ ID NO: 61 with 30 kDa PEG (E6K, C38A, K53A, C76A, C68-30kPEG) (human) (UniProt Q14116); assay: cell-based or functional assay
[19] = target: IL-18 variant SEQ ID NO: 209 (F2A, V11I, C38A, K53A, C76A, C127A) (human) (UniProt Q14116); assay: cell-based or functional assay
[20] = target: IL-18 variant SEQ ID NO: 228 (V11I, C38A, C76A, S105I, C127A) (human) (UniProt Q14116); assay: cell-based or functional assay
[21] = target: IL-18 variant SEQ ID NO: 59 (E6K, C38A, K53A) (human) (UniProt Q14116); assay: cell-based or functional assay
[22] = target: IL-18 variant SEQ ID NO: 225 (V11I, C38A, S55H, C76A, C127A) (human) (UniProt Q14116); assay: cell-based or functional assay
[23] = target: IL-18 variant SEQ ID NO: 227 (V11I, C38A, S55T, C76A, C127A) (human) (UniProt Q14116); assay: cell-based or functional assay
[24] = target: IL-18 variant SEQ ID NO: 8 (E6K, V11I, C38A, K53A, T63A, C68A, C76A, T95C, C127A) (human) (UniProt Q14116); assay: cell-based or functional assay
[25] = target: IL-18 variant SEQ ID NO: 9 (E6K, C38A, K53A, C68A, D98C) (human) (UniProt Q14116); assay: cell-based or functional assay
[26] = target: IL-18 variant SEQ ID NO: 204 (V11I, C38A, K53A, C76A, C127A) (human) (UniProt Q14116); assay: cell-based or functional assay
[27] = target: IL-18 variant SEQ ID NO: 30 with 5 kDa PEG (E6K, V11I, C38A, K53A, T63A, C76A, C127A, C68-5kPEG) (human) (UniProt Q14116); assay: cell-based or functional assay
[28] = target: IL-18 variant SEQ ID NO: 30 (E6K, V11I, C38A, K53A, T63A, C76A, C127A) (human) (UniProt Q14116); assay: cell-based or functional assay
[29] = target: IL-18 variant SEQ ID NO: 6 with 30 kDa PEG (E6K, V11I, C38A, K53A, T63A, C68A, C76A, C127A, D98C-30kPEG) (human) (UniProt Q14116); assay: cell-based or functional assay

Chain of Native IL-18 wild-type (SEQ ID NO: 1, native sequence) (human) (Q14116 37-193): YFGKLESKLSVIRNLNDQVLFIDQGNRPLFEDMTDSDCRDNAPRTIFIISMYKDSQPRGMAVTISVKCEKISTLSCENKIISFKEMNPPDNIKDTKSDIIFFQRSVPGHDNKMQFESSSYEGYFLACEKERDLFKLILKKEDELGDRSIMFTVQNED
Chain of IL-18 variant SEQ ID NO: 204 (V11I, C38A, K53A, C76A, C127A) (human) (Q14116 37-193 V47I/C74A/K89A/C112A/C163A): as the sequence (Q14116 37-193) above, with V11I, C38A, K53A, C76A, C127A counted along it
Chain of IL-18 variant SEQ ID NO: 209 (F2A, V11I, C38A, K53A, C76A, C127A) (human) (Q14116 other isoform, or with tags, fused parts or gaps V11I C38A K53A C76A C127A V11I C38A K53A C76A C127A): as the sequence (Q14116 37-193) above, with F2A, V11I, C38A, K53A, C76A, C127A counted along it
Chain of IL-18 variant SEQ ID NO: 59 with 10 kDa PEG (E6K, C38A, K53A, C68-10kPEG) (human) (Q14116 other isoform, or with tags, fused parts or gaps C38A K53A C38A K53A): as the sequence (Q14116 37-193) above, with E6K, C38A, K53A counted along it
Chain of IL-18 variant SEQ ID NO: 59 with 30 kDa PEG (E6K, C38A, K53A, C68-30kDPEG) (human) (Q14116 other isoform, or with tags, fused parts or gaps C38A K53A C38A K53A): as the sequence (Q14116 37-193) above, with E6K, C38A, K53A counted along it
Chain of IL-18 variant SEQ ID NO: 59 (E6K, C38A, K53A) (human) (Q14116 other isoform, or with tags, fused parts or gaps C38A K53A C38A K53A): as the sequence (Q14116 37-193) above, with E6K, C38A, K53A counted along it
Chain of IL-18 variant SEQ ID NO: 206 (V11I, C38A, K53A, S55A, C76A, C127A) (human) (Q14116 37-193 V47I/C74A/K89A/S91A/C112A/C163A): as the sequence (Q14116 37-193) above, with V11I, C38A, K53A, S55A, C76A, C127A counted along it
Chain of IL-18 variant SEQ ID NO: 227 (V11I, C38A, S55T, C76A, C127A) (human) (Q14116 37-193 V47I/C74A/S91T/C112A/C163A): as the sequence (Q14116 37-193) above, with V11I, C38A, S55T, C76A, C127A counted along it
Chain of IL-18 variant SEQ ID NO: 9 (E6K, C38A, K53A, C68A, D98C) (human) (Q14116 other isoform, or with tags, fused parts or gaps C38A K53A C68A D98C C38A K53A C68A D98C): as the sequence (Q14116 37-193) above, with E6K, C38A, K53A, C68A, D98C counted along it
Chain of IL-18 variant SEQ ID NO: 216 (V11I, C38A, D40A, K53A, C76A, C127A) (human) (Q14116 37-193 V47I/C74A/D76A/K89A/C112A/C163A): as the sequence (Q14116 37-193) above, with V11I, C38A, D40A, K53A, C76A, C127A counted along it
Chain of IL-18 variant SEQ ID NO: 228 (V11I, C38A, C76A, S105I, C127A) (human) (Q14116 37-193 V47I/C74A/C112A/S141I/C163A): as the sequence (Q14116 37-193) above, with V11I, C38A, C76A, S105I, C127A counted along it
Chain of IL-18 variant SEQ ID NO: 225 (V11I, C38A, S55H, C76A, C127A) (human) (Q14116 37-193 V47I/C74A/S91H/C112A/C163A): as the sequence (Q14116 37-193) above, with V11I, C38A, S55H, C76A, C127A counted along it
Chain of IL-18 variant SEQ ID NO: 8 (E6K, V11I, C38A, K53A, T63A, C68A, C76A, T95C, C127A) (human) (Q14116 other isoform, or with tags, fused parts or gaps with the stated changes): as the sequence (Q14116 37-193) above, with E6K, V11I, C38A, K53A, T63A, C68A, C76A, T95C, C127A counted along it
Chain of IL-18 variant SEQ ID NO: 4 with 30 kDa PEG (E6K, C38A, K53A, C68A, M86C-30kPEG) (human) (Q14116 other isoform, or with tags, fused parts or gaps C38A K53A C68A M86C C38A K53A C68A M86C): as the sequence (Q14116 37-193) above, with E6K, C38A, K53A, C68A, M86C counted along it
Chain of IL-18 variant SEQ ID NO: 219 (V11I, C38A, K53A, C76A, G108A, C127A) (human) (Q14116 37-193 V47I/C74A/K89A/C112A/G144A/C163A): as the sequence (Q14116 37-193) above, with V11I, C38A, K53A, C76A, G108A, C127A counted along it
Chain of IL-18 variant SEQ ID NO: 62 with 30 kDa PEG (E6K, C38A, K53A, C127A, C68-30kPEG) (human) (Q14116 other isoform, or with tags, fused parts or gaps C38A K53A C127A C38A K53A C127A): as the sequence (Q14116 37-193) above, with E6K, C38A, K53A, C127A counted along it
Chain of IL-18 variant SEQ ID NO: 213 (V11I, S36A, C38A, K53A, C76A, C127A) (human) (Q14116 37-193 V47I/S72A/C74A/K89A/C112A/C163A): as the sequence (Q14116 37-193) above, with V11I, S36A, C38A, K53A, C76A, C127A counted along it
Chain of IL-18 variant SEQ ID NO: 57 with 30 kDa PEG (E6K, C38S, K53A, C68-30kDPEG) (human) (Q14116 other isoform, or with tags, fused parts or gaps C38S K53A C38S K53A): as the sequence (Q14116 37-193) above, with E6K, C38S, K53A counted along it
Chain of IL-18 variant SEQ ID NO: 30 with 30 kDa PEG (E6K, V11I, C38A, K53A, T63A, C76A, C127A, C68-30kPEG) (human) (Q14116 other isoform, or with tags, fused parts or gaps with the stated changes): as the sequence (Q14116 37-193) above, with E6K, V11I, C38A, K53A, T63A, C76A, C127A counted along it
Chain of IL-18 variant SEQ ID NO: 30 (E6K, V11I, C38A, K53A, T63A, C76A, C127A) (human) (Q14116 other isoform, or with tags, fused parts or gaps with the stated changes): as the sequence (Q14116 37-193) above, with E6K, V11I, C38A, K53A, T63A, C76A, C127A counted along it
Chain of IL-18 variant SEQ ID NO: 30 with 5 kDa PEG (E6K, V11I, C38A, K53A, T63A, C76A, C127A, C68-5kPEG) (human) (Q14116 other isoform, or with tags, fused parts or gaps with the stated changes): as the sequence (Q14116 37-193) above, with E6K, V11I, C38A, K53A, T63A, C76A, C127A counted along it
Chain of IL-18 variant SEQ ID NO: 61 with 30 kDa PEG (E6K, C38A, K53A, C76A, C68-30kPEG) (human) (Q14116 other isoform, or with tags, fused parts or gaps C38A K53A C76A C38A K53A C76A): as the sequence (Q14116 37-193) above, with E6K, C38A, K53A, C76A counted along it
Chain of IL-18 variant SEQ ID NO: 205 (V11I, C38A, K53A, T63A, C76A, C127A) (human) (Q14116 37-193 V47I/C74A/K89A/T99A/C112A/C163A): as the sequence (Q14116 37-193) above, with V11I, C38A, K53A, T63A, C76A, C127A counted along it
Chain of IL-18 variant SEQ ID NO: 224 (V11I, C38A, C76A, Q103K, C127A) (human) (Q14116 37-193 V47I/C74A/C112A/Q139K/C163A): as the sequence (Q14116 37-193) above, with V11I, C38A, C76A, Q103K, C127A counted along it
Chain of IL-18 variant SEQ ID NO: 60 (E6K, C38Q, K53A) (human) (Q14116 other isoform, or with tags, fused parts or gaps C38Q K53A C38Q K53A): as the sequence (Q14116 37-193) above, with E6K, C38Q, K53A counted along it
Chain of IL-18 variant SEQ ID NO: 60 with 30 kDa PEG (E6K, C38Q, K53A, C68-30kPEG) (human) (Q14116 other isoform, or with tags, fused parts or gaps C38Q K53A C38Q K53A): as the sequence (Q14116 37-193) above, with E6K, C38Q, K53A counted along it
Chain of IL-18 variant SEQ ID NO: 220 (V11I, C38A, K53A, C76A, H109A, C127A) (human) (Q14116 37-193 V47I/C74A/K89A/C112A/H145A/C163A): as the sequence (Q14116 37-193) above, with V11I, C38A, K53A, C76A, H109A, C127A counted along it

Substance: Fc fused human IL-18BP isoform a (IL-18BPa) (from UniProt O95998 31-194) (Fc fusion)
- IC50 (read off the curve); IFNγ production in the NK-92 assay (IFNg, ng/mL) [1]: 1 nM
- IC50 of IL-18BPa-Fc on IFNγ secretion, NK-92 [2]: 28.1 nM
- IC50 of IL-18BPa-Fc on IFNγ secretion, NK-92 [3]: 829 nM
- IC50 of IL-18BPa-Fc on IFNγ secretion, NK-92 [4]: 4.83 nM
- IC50 of IL-18BPa-Fc on IFNγ secretion, NK-92 [5]: 41.8 nM
- IC50 of IL-18BPa-Fc on IFNγ secretion, NK-92 [6]: 3.98 nM
- IC50 of IL-18BPa-Fc on IFNγ secretion, NK-92 [7]: 0.781 nM
- IC50 of IL-18BPa-Fc on IFNγ secretion, NK-92 [8]: 34.3 nM
- IC50 of IL-18BPa-Fc on IFNγ secretion, NK-92 [9]: 0.823 nM
- IC50 of IL-18BPa-Fc on IFNγ secretion, NK-92 [10]: 1.81 nM
- IC50 of IL-18BPa-Fc on IFNγ secretion, NK-92 [11]: 11.4 nM
- IC50 of IL-18BPa-Fc on IFNγ secretion, NK-92 [12]: 7.85 nM
- IC50 of IL-18BPa-Fc on IFNγ secretion, NK-92 [13]: 236 nM
- IC50 of IL-18BPa-Fc on IFNγ secretion, NK-92 [14]: 7.52 nM
- IC50 of IL-18BPa-Fc on IFNγ secretion, NK-92 [15]: 10.2 nM
- IC50 of IL-18BPa-Fc on IFNγ secretion, NK-92 [16]: 3.23 nM
- IC50 of IL-18BPa-Fc on IFNγ secretion, NK-92 [17]: 126 nM
- IC50 of IL-18BPa-Fc on IFNγ secretion, NK-92 [18]: 4.29 nM
- IC50 of IL-18BPa-Fc on IFNγ secretion, NK-92 [19]: 5.05 nM
- IC50 of IL-18BPa-Fc on IFNγ secretion, NK-92 [20]: 0.809 nM
- IC50 of IL-18BPa-Fc on IFNγ secretion, NK-92 [21]: 654 nM
- IC50 of IL-18BPa-Fc on IFNγ secretion, NK-92 [22]: 0.456 nM
- IC50 of IL-18BPa-Fc on IFNγ secretion, NK-92 [23]: 0.44 nM
- IC50 of IL-18BPa-Fc on IFNγ secretion, NK-92 [24]: 522 nM
- IC50 of IL-18BPa-Fc on IFNγ secretion, NK-92 [25]: 1000 nM
- IC50 of IL-18BPa-Fc on IFNγ secretion, NK-92 [26]: 1.62 nM
- IC50 of IL-18BPa-Fc on IFNγ secretion, NK-92 [27]: 105 nM
- IC50 of IL-18BPa-Fc on IFNγ secretion, NK-92 [28]: 488 nM
- IC50 of IL-18BPa-Fc on IFNγ secretion, NK-92 [29]: 35.5 nM
